Source: CN103588878A (JIANGSU T MAB BIOPHARMA, dated 2014)
Several values for one entry are separate records, joined by “and”; a condition that tells them apart may be missing. Equal values may be shown once.

Experiments:
[1] = biological target: T1, 生物素化重组人白细胞介素1β (rhIL-1β) (human, UniProt P01584 117-269, biotinylated (site not stated)); assay: BLI (Fortebio Octet QK), biotinylated rhIL-1β, antibody 40-1.25 nM, run 1
T1 construct: Antigen was biotinylated and desalted before the Fortebio Octet measurement; also called 抗原rhIL-1β

[2] = biological target: T1, 生物素化重组人白细胞介素1β (rhIL-1β); assay: BLI (Fortebio Octet QK), summary range of the two runs
[3] = biological target: T1, 生物素化重组人白细胞介素1β (rhIL-1β); assay: BLI (Fortebio Octet QK), biotinylated rhIL-1β, antibody 40-1.25 nM, run 2

Kd [1]: 0.0211 nM
koff [1]: 3.02e-06 s⁻¹
kon [1]: 143000 M⁻¹ s⁻¹
Kd [2]: 0.01 nM and 0.025 nM
Kd [3]: 0.0128 nM
koff [3]: 2.16e-06 s⁻¹
kon [3]: 166000 M⁻¹ s⁻¹
B1: 人源化抗人白细胞介素1β(hIL-1β)单克隆抗体 (antibody, human IgG1, kappa, V domains shown)
VH: EVQLVESGGGLVQPGGSLRLSCAVSGFSLDVYTMTWVRQAPGKGLEWIGYIWSGGSASYASWAKGRFTISKDSSKNTVYLQINSLRAEDTAVYFCARVKMISNIETFDPWGPGTLVTVSS
VL: DIQMTQSPSSVSASVGDRVTIKCQASERIYSGLAWYQQKPGKRPKLLIYRASTLASGVPSRFSGSGSGTDFTLTISSLQPEDFATYYCQQGVSSSDIDNVFGGGTKVEIKR
notes: Full light and heavy chains; Expressed in CHO DG44 cells and purified; also called 人源化抗hIL-1β单克隆抗体; humanized form of rabbit clone Q26
